5 molecules from patent publication US20220144937A1 (JIANGSU HENGRUI MEDICINE, published 2022) can be followed below.

Numbering of substitutions follows the chain as printed.

Test [1] has as its target T1, human IL-5 with his-tag (rhIL-5-his) (human, UniProt P05113 20-134).
T1 sequence: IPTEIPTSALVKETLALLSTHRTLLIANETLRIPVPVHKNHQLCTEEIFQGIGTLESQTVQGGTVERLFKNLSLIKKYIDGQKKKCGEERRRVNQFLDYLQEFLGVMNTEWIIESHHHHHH
Briefly: cell-based or functional assay.

Test [2] has as its target T1, human IL-5 with his-tag (rhIL-5-his). The experiment in a line: cell-based or functional assay. This is another data set of the same source.
For test [3] the target is unchanged. Briefly: FACS blocking: biotin-IL-5 (100 ng/ml) binding to IL-5Rα/β-CHOS cells, antibody diluted. The procedure:
Particular method was as follows: CD-CHO comprising […] and […] zeozin was used to culture CHO-S-IL-5Rα and β. During cell culture, the concentration should not exceed 3×10⁶ cells/ml. IL-5Rα/β-CHOS cells in good condition were centrifuged (at 1000 rpm, 5 min), and washed once with 10% FBS in PBS, and the cells were counted, the cell concentration was adjusted to 4×10⁶ cells/ml, and 25 μl was taken out and added into a round-bottom 96-well plate. The antibody to be tested was diluted with PBS solution comprising 10% FBS. The initial concentration was 200 μg/ml, and diluted at 1:10 for 8 gradient dilutions. 25 μl of 100 ng/ml IL-5 labeled by a biotin labeling kit (Tojin Chemical, LK03) was added, and fully mixed with 50 μl of diluted antibody at each concentration, and added into 96-well plate that has been added with cells, and incubated at 4° C. for 1 hour. After the incubation, the sample was centrifuged at 4° C. (400 g, 5 min), and the supernatant was removed, the plated was washed with 200 μl of pre-cooled PBS by centrifugation, repeated for twice; PE-Avidin secondary antibody diluted at 1:1333 was added and incubated in the dark at 4° C. for 40 min, centrifuged at 4° C.

Test [4] shares this target. The experiment in a line: Biacore T200, antibody captured on protein A chip, antigen in flow, 1:1 Langmuir. The procedure: The affinity of the humanized IL-5 antibody to be tested with human IL-5 was measured by Biacore T200 (GE) instrument.
(§1) The protein A biosensor chip was used to affinity capture of the molecules to be tested, and then the antigen (prepared in Example 1) flowed through the surface of the chip, and the reaction signal was detected in real time with the Biacore T200 instrument to obtain the binding and dissociation curves. After the dissociation of each experimental cycle was completed, the biosensor chip was washed and regenerated with glycine-hydrochloric acid regeneration solution (pH 1.5). BIA evaluation version 4.1 GE software was used to fit the data against (1:1) Langmuir model, and the affinity value was obtained and shown in Table 14.
On the technique in general: SPR reads the build-up and loss of mass on a sensor chip optically.

For test [5] the target is unchanged. Briefly: Biacore. The procedure: (§2) The affinity of the murine IL-5 antibody to be tested with human IL-5 was measured by Biacore T200 (GE) instrument.
as §1, with “(recombinant human and cyno IL-5 prepared” for “(prepared”, “13.” for “14.”

For test [6] the target is unchanged. Briefly: Biacore T200, antibody captured on protein A chip, antigen in flow, 1:1 Langmuir. The procedure: as §2
as §1, with “(recombinant human and cyno IL-5 prepared” for “(prepared”, “13.” for “14.”
This is another data set of the same source.

The target in another test is T2, cyno IL-5 with his-tag (cyno (paragraph 156 says rhesus), UniProt P48093 20-134 (rhesus entry)).
T2 construct: also called rhesus IL-5 with His-tag; monkey IL-5
T2 sequence: T1 sequence with T7A, D80G
The test is described as above. As for the experimental part:
as §2
as §1, with “(recombinant human and cyno IL-5 prepared” for “(prepared”, “13.” for “14.”

B1: Hu39D10 (antibody, human IgG4 S228P, kappa, V domains shown)
VH: EVQLVESGGGLVQPGGSLRLSCAVSGLSLTSNSVNWIRQAPGKGLEWVGLIWSNGDTDYNSAIKSRFTISRDTSKSTVYLQMNSLRAEDTAVYYCAREYYGYFDYWGQGTLVTVSS
VL: DIQMTQSPSSLSASVGDRVTITCLASEGISSYLAWYQQKPGKAPKLLIYGANSLQTGVPSRFSGSGSATDYTLTISSLQPEDFATYYCQQSYKFPNTFGQGTKVEVKR
notes: Anti-IL-5 antibody of WO2012083370A1, used as positive control; also called positive control; positive antibody
On to B1, for which, in test [1], the “IC50 of inhibition of IL-5 induced TF1 cell proliferation” value came out at 0.3 nM. Further, the “IC50 of blocking IL-5 induced eosinophil adhesion” value in test [2] amounted to 0.0118 µg/mL. This molecule gave an IC50 in test [3] of 0.0251 µg/mL.

B2: h1780-017 (antibody, human IgG1, kappa, V domains shown)
VH: EVQLVQSGAEVKKPGASVKVSCKASGYTFTEYLIHWVRQAPGQGLEWIGYINPYSGGTVYNEKFKSRATLTVDKSISTAYMEFSRLRSDDTAVYYCARDGGYSDPLDYWGQGTMVTVSS
VL: DTVLTQSPATLSLSPGERATLSCRASEGLTSYMHWYQQKPGQAPRLLIYKASNLASGVPARFSGSGSGTDFTLTISSLEPEDFATYFCQQNWNDPWTFGGGTKVEIKR
Take B2: the “IC50 of inhibition of IL-5 induced TF1 cell proliferation” value in test [1] was determined as 0.16 nM. The “IC50 of blocking IL-5 induced eosinophil adhesion” value in test [2] worked out at 0.0212 µg/mL. This molecule displayed a Kd in test [4] of 0.0778 nM. This molecule showed a 50% inhibitory concentration (IC50) in test [3] of 0.016 µg/mL.

B3: mAb1773 (antibody, V domains shown)
VH: EVQLQQSLAELVRPGASVTLSCTASGFNIKNTYIHWVKQRPEQGLEWIGRIDPANGDTKHGPKFQGKATITADTSSNTAYLQFSSLTSEDTAIYYCFRYGIYPDHWGQGTPLTVSS
VL: QIVLTQSPALMSASPGEKVTMTCSASSSVNYIYWYQQKPRSSPKPWIYLTATLASGVPARFSGSGSGTSFSLTISRMEAEDAATYYCQQWNSYPYTFGGGTKLEIE
notes: Murine hybridoma antibody
For the molecule B3, the Kd was 0.129 nM in test [5], 0.129 nM in test [6] and 0.476 nM with cyno IL-5 with his-tag.

B4: mAb1779 (antibody, V domains shown)
VH: QVKLLQSGAALVKPGDSVKMSCKASGYTFTDYIIHWVKQSHGKSLEWIGYFNPNSGGSNYNENFKRKATLTADKSSSTAYLEFSRVTSEDSAIYYCGRRIAWDHWYFDFWGPGTMVTVSS
VL: DIQMTQSPASLSASLGETVSIECLASEGISNDVAWYQQKSGRSPQLLVYAASRLQDGVPSRFSGSGSGTRYFFKISGMQPEDEADYFCQQGYKTPLTFGSGTKLEIK
notes: Murine hybridoma antibody
For the molecule B4, the Kd in test [5] worked out at 0.458 nM; in test [6], 0.458 nM; with cyno IL-5 with his-tag it was 9.98 nM.

B5: mAb1780 (antibody, V domains shown)
VH: QVKLLQSGAALVKPGDSVKMSCKASDYTFTEYLIHWVKQSQGRSLEWIGYINPYSGGTVYNEKFKSKATLTVDKFSSTAYMEFRRLTFEDSAIYYCARDGGYSDPLDYWGQGVMVTVSS
VL: DTVLTQSPALAVSPGERVSISCRASEGLTSYMHWYQQKPGQQPKLLIYKASNLASGVPARFSGSGSGTDFTLTIDPVEADDAATYFCQQNWNDPWTFGGGTKLELK
notes: Murine hybridoma antibody
Take B5: the equilibrium dissociation constant (Kd) in test [5] came out at 0.0899 nM; in test [6], 0.0899 nM; in the test with cyno IL-5 with his-tag, 0.312 nM.

The IC50 is the midpoint of a concentration-inhibition curve. Read a low IC50 as greater potency in that assay. Usually Kd stands for the free concentration of one partner at which half of the binding sites on the other are occupied at equilibrium, for simple one-to-one binding. A higher Kd goes with a looser complex.
